# In patent US20070105162A1, “Monovalent avidin and streptavidin compositions” (Massachusetts Institute of Technology, priority 2005, published 2007):
# Columns and labels:
# [1] = Thermostability assay of streptavidin tetramer (SDS-PAGE); assay type: physicochemical; conditions: 100° C., 3 min in PBS
# [2] = test system: biotinylated AP-CFP-TM on HeLa cells; experiment: Staining of biotinylated AP-CFP-TM on HeLa with Alexa Fluor 568-conjugated streptavidins; assay type: cell-based; conditions: Alexa Fluor 568 conjugate 10 μg/mL, 10 min at 4° C.
# Experimental: Enzymatic biotinylation and imaging of HeLa transfectants were performed as previously described (Howarth, M. et al., Proc. Natl. Acad. Sci. USA 102: 7583-7588, 2005), except instead of 10 μM biotin and 1 mM ATP, we added 10 μM biotin-AMP (synthesized according to Coleman and Huang; Coleman, T. M. and Huang, F. Chem. Biol. 9: 1227-1236, 2002) to give equivalent biotinylation but minimizing the risk of purinoreceptor activation by ATP (Rathbone, M. P. et al., Prog. Neurobiol. 59: 663-690, 1999). […] Biotinylation of neurons was performed at day in vitro (DIV) 8 in Hanks' Balanced Salt Solution (HBSS) (Invitrogen) with 0.2 μM biotin ligase and 10 μM biotin-AMP for 5 min at 37° C. […] Neurons were washed with NeuroBasal media (Invitrogen) supplemented with B-27 (Invitrogen), 50 U/mL penicillin, 50 μg/mL streptomycin, and 0.2 mM L-glutamine and chased in the same medium for 0 or 2 hr at 37° C. Cells were then fixed in −20° C. methanol. […]
# Images of HeLa cells were collected on a Zeiss Axiovert 200M inverted epifluorescence microscope using a 40× oil-immersion lens and a MicroMAX CCD camera (Roper Scientific; Tucson, Ariz.). CFP (420DF20 excitation, 450DRLP dichroic, 475DF40 emission) and Alexa568 (560DF20 excitation, 585DRLP dichroic, 605DF30 emission) images were collected and analyzed using OpenLab software (Improvision; Lexington, Mass.). Fluorescence images were background-corrected. […] Images were scaled to 16 bits and analyzed in Northern Eclipse (Empix Imaging; Ontario, Canada) with user-written software. […] Results were then calculated in terms of clusters per micrometer of dendrite. For assessment of pre-synaptic terminals, clusters were determined as before and average grey levels of clusters were compared between transfected dendrites and untransfected dendrites within the same field of view. […] “n” represents the number of transfected neurons for which clusters were measured. […]
# [3] = Electrospray ionization mass spectrometry: biotin molecules bound per avidin tetramer; assay type: binding; conditions: spectra with or without biotin
# Experimental: Biospin columns (Bio-Rad) are equilibrated by spinning 5 times in 500 μL of 15 mM ammonium acetate pH 7.8 at 1000 g for 2 min. Then 30-50 μL of 30 μM protein in PBS is buffer-exchanged into 15 mM ammonium acetate pH 7.8 using the pre-equilibrated Biospin columns by spinning for 20 s at 1000 g. To ensure that PBS is completely removed, the flow-through is again buffer-exchanged with a second pre-equilibrated column for 20 s. This procedure also removes free biotin when the starting 30 μM avidin forms are incubated with 200 μM biotin. Less than 2 min before introducing into the mass spectrometer, the buffer-exchanged samples are diluted with a solution of 1:1 15 mM ammonium acetate pH 7.8 and 78% acetonitrile, 0.01% trifluoroacetic acid.
# An Advion nanospray robot (Advion BioSystems, Ithica, N.Y.) with a back-pressure of 0.45 Psi introduces the samples into the mass spectrometer, an 8.5 Tesla custom-built Electrospray Ionisation-Fourier Transform Mass Spectrometer. To visualize the non-covalent tetramers and non-covalent biotin binding in the high m/z range, the following settings are used: Chirp rate=750 Hz, Amplitude=0.5 V p-p, Tube lens=200 V, Capillary heater 2 V, Quad filter=−20 V, Skimmer=0 V, Capillary offset=34 V, X-fer=−110 V, Leak gas=4.2×10^−5 Torr. The capillary heater is kept low and the Quad filter and Skimmer are kept either high or off to prevent subunit dissociation. The transfer is set to this low value of −110 V in order to visualize the high m/z region.
# The masses are calculated manually by first determining the charge state. The final mass is determined by multiplying the observed m/z by the charge and subtracting the mass corresponding to the addition of protons to give that charge. This calculation is repeated for each charge state and the mean and standard deviation reported. The spectra are calibrated with tetrameric avidin, after its monomer mass is determined under denaturing conditions. […]
# [4] = Kd of D4 by 3H-biotin binding and protein precipitation; conditions: 24 μM D4, increasing 3H-biotin (0-500 μM), >20 hr room temperature; ± s.e.m.
# Experimental: After incubation at room temperature for 20 hr, the protein was precipitated by adding 50 μL to 200 μL 0.2 M ZnSO4 followed by 200 μL 0.2 M NaOH. The protein precipitate was pelleted by centrifugation at 16,500 g for 5 min. The biotin bound by D4 was calculated from the total ^3H-biotin added minus the ^3H-biotin in the supernatant. The Kd was obtained using a nonlinear regression analysis (one-site binding hyperbola) with SigmaPlot (Systat Software; Point Richmond, Calif.).
biotin binding per avidin tetramer by mass spectrometry (in words) [3],Kd [4],Substance,fraction remaining tetrameric on heating [1],Alexa staining of biotinylated AP-CFP-TM [2]
single biotin,,A1D3: Monovalent streptavidin tetramer: one His6-tagged wild-type (A) subunit and three dead (D) subunits [Tetramer A1D3],significant fraction,detected equally well
No biotin binding,918 ± 0.0117 µM,"D4: Streptavidin tetramer with 4 dead subunits (D: N23A, S27D, S45A, SEQ ID NO:3) [Tetramer D4]",,no detectable staining
